In US20210115149A1 (ABVISION, published 2021):
Values belong to the binder of their own block, whether it stands above or below them.

Target: human CD40 protein (human, UniProt P25942 21-193, limits assumed)
Assay: ELISA screening of hybridoma wells against human CD40 protein
Description: Antibodies were created by electrofusion of human CD40-immunized mouse splenocytes (Balb/c strain) with SP2/0-A14 cells (ATCC) (Immunization procedure; dose, adjuvants, time course). Fused cells were seeded into 96-well plates and ELISA screening was conducted to identify wells that contain antibodies which interact with the human CD40 protein. Positive wells were further expanded and followed a limited dilution to isolate monoclonal hybridomas. Purified antibodies were used to test their ability to trigger CD40 signaling by an in-house created reporter system. Basically, an engineered 293T cell line was transduced to stably express the human CD40 protein. When testing the agonistic functions of CD40 antibodies, DNA plasmids of an NF-kB-driven luciferase reporter and Fc-gamma receptors were transiently transfected into established CD40-293T cells. Antibodies to be tested were added to the culture and incubated for 24 hours. Treated cells were harvested, lysed and analyzed on a plate reader for the activity of luciferase. Anti-human CD40 mAb clone #1E10-H2 and clone #2G9-B11 were tested binding to and activating human CD40. The sequences of the IgG heavy chain and light chain variable domains of anti-human CD40 agonistic mAb clone #1E10-H2 are shown in FIG. 1.

Chain of human CD40 protein (P25942 21-193 limits assumed): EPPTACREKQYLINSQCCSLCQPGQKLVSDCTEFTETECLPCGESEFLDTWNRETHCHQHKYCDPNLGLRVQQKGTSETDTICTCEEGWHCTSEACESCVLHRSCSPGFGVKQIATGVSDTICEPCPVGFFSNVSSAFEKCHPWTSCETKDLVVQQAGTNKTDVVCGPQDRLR

binding result: binds
B1: Anti-human CD40 mAb clone #2G9-B11 (antibody, mouse IgG1, V domains shown)
VH: EVQLVESGGGLVKPGGSLKLSCAASGFSFSSYAMSWVRQTPEKRLEWVATISSGGDYTYYPDSVKGRFTISRDNAKNTLYLQMTSLRSEDTAMYYCARRNHFTYWGQGTLVTVSA
VL: DIVMTQSHKFMSTSVGDRVSITCKASQDVVTSVAWYQQKPGQSPKLLIYWTSTRHTGVPDRFTGSGSGTDFTLTISNVQSEDLADYFCQQYSSYPLTFGAGTKLELK
notes: Mouse hybridoma monoclonal antibody (Balb/c), purified; also called anti-CD40 2G9-B11

binding result: binds
B2: Anti-human CD40 mAb clone #1E10-H2 (antibody, V domains shown)
VH: QVQLQQSGAELMKPGASVKISCKATGYTFSSYWIEWIKQRPGHVLEWIGEILPGSGSANYNERFKGKATFTADTSSNTAYMQLTSLTSEDSAVYYCARLRYYGSSPWFAYWGQGTLVTVSA
VL: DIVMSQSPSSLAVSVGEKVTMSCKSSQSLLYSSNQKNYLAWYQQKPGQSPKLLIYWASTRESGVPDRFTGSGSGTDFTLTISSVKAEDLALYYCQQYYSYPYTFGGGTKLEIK
notes: Mouse hybridoma monoclonal antibody (Balb/c), purified; also called anti-human CD40 agonistic mAb (clone #1E10-H2)
